In patent US20180162947A1 (UCB, published 2018):
Where “and” joins values, the source holds several entries; their conditions need not be identical. Equal entries are not always repeated. Values belong to the binder of their own block, whether it stands above or below them.

Assays:
[1] = biological target: T1, mouse CSF-1R (form not stated) (mouse, UniProt P09581 20-511, limits assumed); experiment: not described
T1 construct: also called murine CSF-1R
T1 sequence (looked up): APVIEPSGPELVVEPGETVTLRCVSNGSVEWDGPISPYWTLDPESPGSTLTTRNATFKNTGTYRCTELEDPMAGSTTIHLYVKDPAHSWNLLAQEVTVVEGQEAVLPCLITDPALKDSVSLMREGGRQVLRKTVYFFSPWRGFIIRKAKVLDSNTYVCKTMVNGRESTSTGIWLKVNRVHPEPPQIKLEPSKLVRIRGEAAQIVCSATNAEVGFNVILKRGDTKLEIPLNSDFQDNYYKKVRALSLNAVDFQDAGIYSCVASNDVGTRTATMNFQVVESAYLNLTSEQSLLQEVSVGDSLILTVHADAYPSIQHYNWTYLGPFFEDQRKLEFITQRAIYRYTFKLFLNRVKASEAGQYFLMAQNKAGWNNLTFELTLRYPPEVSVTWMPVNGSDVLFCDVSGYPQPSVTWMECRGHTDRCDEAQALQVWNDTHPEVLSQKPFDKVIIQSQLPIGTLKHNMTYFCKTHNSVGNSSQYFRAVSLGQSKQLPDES

[2] = biological target: T2, human CSF-1R on cells (THP-1 cells, transfected HEK293F cells, primary human monocytes) (human, UniProt P07333 20-972); experiment: cell-based or functional assay
[3] = biological target: T2, human CSF-1R on cells (THP-1 cells, …); experiment: cell-based or functional assay; remark: listed apart in the source
[4] = biological target: T2, human CSF-1R on cells (THP-1 cells, …); experiment: cell-based or functional assay; remark: listed apart in the source
[5] = biological target: T3, recombinant human CSF-1R (form not stated) (human, UniProt P07333 20-512, limits assumed); experiment: BIAcore, experiment 1 of 3
T3 construct: for the ELISA no species is stated; also called recombinant CSF-1R; recombinant CSF-1R protein
Procedure: (§1) The assay format was capture of the anti-CSF-1R antibodies by immobilised anti-human IgG,F(ab′)₂, then a titration of hCSF-1R/Fc over the captured surface. BIA (Biomolecular Interaction Analysis) was performed using a BIAcore 3000 (GE Healthcare Bio-Sciences AB). All experiments were performed at 25° C. An AffiniPure F(ab′)₂ fragment goat anti-human IgG, F(ab′)₂ fragment specific (Jackson ImmunoResearch), was immobilised on a CM5 Sensor Chip (GE Healthcare Bio-Sciences AB) via amine coupling chemistry to a level of ˜5000 response units (RU). HBS-EP buffer (10 mM HEPES, pH 7.4, 0.15M NaCl, 3 mM EDTA, 0.005% Surfactant P20, GE Healthcare Bio-Sciences AB) was used as the running buffer with a flow rate of 10 μl/min.

[6] = biological target: T3, recombinant human CSF-1R (form not …); experiment: BIAcore, experiment 2 of 3
Procedure: as §1

[7] = biological target: T3, recombinant human CSF-1R (form not …); experiment: BIAcore, experiment 3 of 3
Procedure: as §1

[8] = biological target: T3, recombinant human CSF-1R (form not …); experiment: BIAcore, purified antibody, mean
[9] = biological target: T3, recombinant human CSF-1R (form not …); experiment: BIAcore, recombinant CSF-1R protein
[10] = biological target: T3, recombinant human CSF-1R (form not …); experiment: BIAcore, purified antibody, experiment 1
[11] = biological target: T3, recombinant human CSF-1R (form not …); experiment: BIAcore, purified antibody, experiment 2
[12] = biological target: T2, human CSF-1R on cells (THP-1 cells, …); experiment: inhibition of CSF-1 binding to THP-1 cells
[13] = biological target: T3, recombinant human CSF-1R (form not …); experiment: BIAcore, mean of 3 (fourth row, unlabelled)
Procedure: as §1

[14] = biological target: T3, recombinant human CSF-1R (form not …); experiment: BIAcore, DG/SG comparison, crude cell supernatant
[15] = biological target: T3, recombinant human CSF-1R (form not …); experiment: BIAcore, humanisation stage, crude cell supernatant
[16] = biological target: T2, human CSF-1R on cells (THP-1 cells, …); experiment: quantitative flow cytometry on THP-1 cells, Alexa-488-labelled antibody
[17] = biological target: T4, recombinant human CSF-1R/Fc fusion protein (R&D Systems) (human, UniProt P07333 20-517); experiment: BIAcore 3000, antibody captured by anti-human IgG F(ab')2, hCSF-1R/Fc in solution, 25 C
T4 construct: extracellular domain; Bought from R&D Systems; also called hCSF-1R/Fc; not shown: Fc part of the bought fusion protein, not described
Procedure: Antibodies were tested for their ability to bind CSF-1R in a BIAcore assay by measurement of binding kinetics to a purified recombinant CSF-1R/Fc fusion protein.
as §1
Recombinant human CSF-1R/Fc (R&D Systems) was passed over the captured anti-CSF-1R antibody at 5 nM at a flow rate of 30 ul/min for 5 min, then the flow rate was increased to 100 ul/min for 30 min for the dissociation phase. The injection at 5 nM was performed twice along with a corresponding buffer control. These sensorgrams were used to generate the dissociation rate. […] These sensorgrams were used to generate the association rate. The surface was regenerated at a flow rate of 10 ul/min by a 10 ul injection of 40 mM HCl followed by a 5 ul injection of 10 mM NaOH. Double referenced background subtracted binding curves were analysed using the BIAevaluation software (version 4.1) following standard procedures. Kinetic parameters were determined from the fitting algorithm.

[18] = biological target: T3, recombinant human CSF-1R (form not …); experiment: ELISA ligand-blocking assay, antibody pre-mixed with 1 ng/ml CSF-1 (competitor), plate-bound CSF-1R
Text: (§2) This method is from here on referred to as the ‘ELISA ligand-blocking assay’.

[19] = biological target: T3, recombinant human CSF-1R (form not …); experiment: ELISA ligand-blocking assay, antibody pre-mixed with 10 ng/ml CSF-1 (competitor), plate-bound CSF-1R
Text: as §2

[20] = biological target: T3, recombinant human CSF-1R (form not …); experiment: ELISA ligand-blocking assay, antibody pre-mixed with 100 ng/ml CSF-1 (competitor), plate-bound CSF-1R
Text: as §2

T4 sequence (P07333 20-517): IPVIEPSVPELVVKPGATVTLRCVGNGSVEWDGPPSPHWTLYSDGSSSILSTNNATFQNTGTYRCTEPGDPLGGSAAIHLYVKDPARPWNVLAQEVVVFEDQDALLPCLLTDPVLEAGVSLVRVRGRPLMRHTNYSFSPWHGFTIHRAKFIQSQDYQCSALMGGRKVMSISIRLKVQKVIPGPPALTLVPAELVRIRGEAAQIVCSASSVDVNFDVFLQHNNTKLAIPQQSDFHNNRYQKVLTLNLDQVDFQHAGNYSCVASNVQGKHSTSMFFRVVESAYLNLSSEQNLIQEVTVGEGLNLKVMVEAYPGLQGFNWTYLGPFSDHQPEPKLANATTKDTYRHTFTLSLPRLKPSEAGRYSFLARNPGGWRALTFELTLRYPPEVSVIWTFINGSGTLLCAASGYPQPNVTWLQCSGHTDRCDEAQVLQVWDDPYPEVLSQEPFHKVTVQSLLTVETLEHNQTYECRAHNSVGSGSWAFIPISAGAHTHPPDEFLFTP
T3 sequence (P07333 20-512 limits assumed): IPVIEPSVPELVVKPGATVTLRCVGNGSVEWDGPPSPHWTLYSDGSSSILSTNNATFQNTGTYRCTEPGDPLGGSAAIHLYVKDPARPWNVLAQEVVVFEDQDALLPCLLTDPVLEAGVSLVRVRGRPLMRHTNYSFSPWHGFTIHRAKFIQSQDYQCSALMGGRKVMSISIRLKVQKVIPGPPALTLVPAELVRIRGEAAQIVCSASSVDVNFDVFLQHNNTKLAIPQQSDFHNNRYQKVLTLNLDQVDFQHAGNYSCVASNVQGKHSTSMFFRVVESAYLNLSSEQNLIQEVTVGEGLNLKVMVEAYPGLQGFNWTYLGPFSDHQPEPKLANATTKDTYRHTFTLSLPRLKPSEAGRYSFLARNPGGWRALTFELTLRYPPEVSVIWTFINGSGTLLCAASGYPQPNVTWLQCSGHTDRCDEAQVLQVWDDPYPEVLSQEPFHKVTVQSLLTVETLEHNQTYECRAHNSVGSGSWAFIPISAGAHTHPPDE
T2 sequence (P07333 20-972): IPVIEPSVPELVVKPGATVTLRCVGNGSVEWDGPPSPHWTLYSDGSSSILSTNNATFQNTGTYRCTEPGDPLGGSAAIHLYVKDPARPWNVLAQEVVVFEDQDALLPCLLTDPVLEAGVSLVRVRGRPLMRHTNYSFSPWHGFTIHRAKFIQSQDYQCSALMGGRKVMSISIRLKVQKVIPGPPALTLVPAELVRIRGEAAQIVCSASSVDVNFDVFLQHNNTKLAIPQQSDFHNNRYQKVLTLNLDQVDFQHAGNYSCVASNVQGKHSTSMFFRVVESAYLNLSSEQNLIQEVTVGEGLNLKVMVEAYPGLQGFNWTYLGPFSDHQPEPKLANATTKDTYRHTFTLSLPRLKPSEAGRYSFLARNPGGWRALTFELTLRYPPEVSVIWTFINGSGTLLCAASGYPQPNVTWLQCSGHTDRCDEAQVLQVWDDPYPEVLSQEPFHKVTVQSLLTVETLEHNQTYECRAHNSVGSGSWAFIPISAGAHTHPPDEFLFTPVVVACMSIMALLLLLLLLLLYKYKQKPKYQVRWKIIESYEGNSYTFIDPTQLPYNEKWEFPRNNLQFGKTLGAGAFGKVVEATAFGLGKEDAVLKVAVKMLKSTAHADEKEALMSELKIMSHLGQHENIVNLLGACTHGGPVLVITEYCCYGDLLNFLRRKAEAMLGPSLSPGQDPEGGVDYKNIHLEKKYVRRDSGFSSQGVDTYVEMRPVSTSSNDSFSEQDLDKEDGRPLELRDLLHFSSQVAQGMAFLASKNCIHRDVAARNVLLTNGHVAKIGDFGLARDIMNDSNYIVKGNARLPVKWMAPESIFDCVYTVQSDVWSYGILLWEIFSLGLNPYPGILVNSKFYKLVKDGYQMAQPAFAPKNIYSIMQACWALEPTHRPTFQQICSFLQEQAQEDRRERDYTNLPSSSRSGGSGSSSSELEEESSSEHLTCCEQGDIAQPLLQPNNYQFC

- binding result [1]: no binding
B1: Ab969.g2 (969gH2gL7) (antibody, human IgG4 S228P, kappa, V domains shown)
VH: EVTLKESGPALVKPTQTLTLTCTFSGFSLTTYGMGVGWIRQPPGKALEWLANIWWDDDKYYNPSLKNRLTISKDTSKNQVVLTMTNMDPVDTATYYCARIGPIKYPTAPYRYFDFWGQGTMVTVSS
VL: DIQMTQSPSSLSASVGDRVTITCLASEDIYDNLAWYQQKPGKAPKLLIYYASSLQDGVPSRFSGSGSGTDYTLTISSLQPEDFATYYCLQDSEYPWTFGGGTKVEIKR
notes: Full-length humanised IgG4 (S241P), human kappa (Km3 allotype); also called 969gH2gL7 DG; Ab969.2

- mean IC50, MCP-1 inhibition assay, primary human monocytes, 100 ng/ml CSF-1 [2]: 0.0246 µg/mL
- IC50, MCP-1 inhibition assay, Donor 1 [3]: 0.031 µg/mL
- IC50, MCP-1 inhibition assay, Donor 2 [3]: 0.0057 µg/mL
- IC50, MCP-1 inhibition assay, Donor 3 [3]: 0.0594 µg/mL
- IC50, MCP-1 inhibition assay, Donor 4 [3]: 0.0417 µg/mL
- IC50, MCP-1 inhibition assay, Donor 5 [3]: 0.0209 µg/mL
- IC50, MCP-1 inhibition assay, Donor 6 [3]: 0.007 µg/mL
- IC50, IL-34-dependent human monocyte assay (MCP-1 by ELISA), 100 ng/ml IL-34, Donor 1 [4]: 0.0201 µg/mL
- IC50, IL-34-dependent human monocyte assay (MCP-1 by ELISA), 100 ng/ml IL-34, Donor 2 [4]: 0.00979 µg/mL
- Kd [5]: 3.6 pM
- koff [5]: 1.03e-05 s⁻¹
- kon [5]: 2.83e+06 M⁻¹ s⁻¹
- Kd [6]: 3.9 pM
- koff [6]: 1.1e-05 s⁻¹
- kon [6]: 2.79e+06 M⁻¹ s⁻¹
- Kd [7]: 3.6 pM
- koff [7]: 9.51e-06 s⁻¹
- kon [7]: 2.68e+06 M⁻¹ s⁻¹
- Kd [8]: 4.3 pM
- koff [8]: 9.3e-06 s⁻¹
- kon [8]: 2.16e+06 M⁻¹ s⁻¹
- Kd [9]: 4.8 pM
- Kd [10]: 4.4 pM
- koff [10]: 9.49e-06 s⁻¹
- kon [10]: 2.16e+06 M⁻¹ s⁻¹
- Kd [11]: 4.2 pM
- koff [11]: 9.1e-06 s⁻¹
- kon [11]: 2.16e+06 M⁻¹ s⁻¹
- IC50 [12]: 0.00289 µg/mL
- Kd [13]: 3.7 pM
- koff [13]: 1.03e-05 s⁻¹
- kon [13]: 2.77e+06 M⁻¹ s⁻¹
- Kd [14]: 2 pM
- koff [14]: 8.53e-06 s⁻¹
- kon [14]: 4.35e+06 M⁻¹ s⁻¹
- Kd [15]: 3.5 pM
- koff [15]: 7.99e-06 s⁻¹
- kon [15]: 2.31e+06 M⁻¹ s⁻¹
- Kd [16]: 2200 pM
- Kd [17]: 9.65 pM and 9.6 pM
- koff [17]: 2.49e-05 s⁻¹
- kon [17]: 2.58e+06 M⁻¹ s⁻¹
- IC50 [18]: 0.0128 µg/mL
- IC50 [19]: 0.0793 µg/mL
- IC50 [20]: 0.829 µg/mL
B2: chimeric antibody 969 (rat variable regions, human gamma-4 heavy chain constant region and human kappa chain constant region) (antibody, human IgG4, V domains shown)
VH: QVTLKESGPGILQPSQTLSLTCTFSGFSLTTYGMGVGWIRQPSGKGLEWLANIWWDDDKYYNPSLKNRLTISKDTSNNQAFLKLTNVHTSDSATYYCARIGPIKYPTAPYRYFDFWGPGTMVTVSS
VL: DIQMTQSPASLSASLGETVSIECLASEDIYDNLAWYQKKPGKSPHLLIYYASSLQDGVPSRFSGSGSGTQYSLKINSLESEDAATYFCLQDSEYPWTFGGGTKLELKR
modifications: Alexa-488 label in the cell-based affinity assay; not carried by the letters.
notes: Full-length human IgG4 (S241P)/kappa chimeric; also called Ab969
